The Ki is a dissociation constant, usually derived from enzyme kinetics or from competition with a known ligand.

The chains are these.
B1: Compound 243 (peptide)
peptide: [βAla][Sar][Sar][Sar][Sar][Sar][Sar][Sar][Sar][Sar][Sar]H[dD]VPC[Aib][1Nal]GP[hArg][1Nal]CP[Tle]NR[Aib]GC
modifications: linker 16-23-30 via TBMB
B2: Compound 259 (peptide)
peptide: [βAla][Sar][Sar][Sar][Sar][Sar][Sar][Sar][Sar][Sar][Sar]H[dD]VPCP[1Nal]G[Aib]F[1Nal]CP[Tle]N[hArg][Aib][dD]C
modifications: linker 16-23-30 via TBMB
B3: Compound 249 (peptide)
peptide: [βAla][Sar][Sar][Sar][Sar][Sar][Sar][Sar][Sar][Sar][Sar]H[dD]VPCP[1Nal]G[Aib][hArg][1Nal]CP[Tle]NR[Aib]GC
modifications: linker 16-23-30 via TBMB
B4: Compound 257 (peptide)
peptide: [βAla][Sar][Sar][Sar][Sar][Sar][Sar][Sar][Sar][Sar][Sar]H[dD]VPCP[1Nal]G[Aib]F[1Nal]CP[Tle]N[hArg]PGC
modifications: linker 16-23-30 via TBMB
B5: Compound 242 (peptide)
peptide: [βAla][Sar][Sar][Sar][Sar][Sar][Sar][Sar][Sar][Sar][Sar]H[dD]VPC[Aib][1Nal]G[Aib]FWCP[Tle]N[hArg]P[dD]C
modifications: linker 16-23-30 via TBMB
B6: Compound 265 (peptide)
peptide: [βAla][Sar][Sar][Sar][Sar][Sar][Sar][Sar][Sar][Sar][Sar]H[dD]VPCP[1Nal]G[Aib]FWCP[Tle]N[hArg]P[dD]C
modifications: linker 16-23-30 via TBMB
B7: Compound 231 (peptide)
peptide: Ac-[Sar][Sar]A[dH]DVPCP[1Nal]G[Aib]F[1Nal]CP[Tle]N[hArg]PGC
modifications: linker 8-15-22 via TBMB
B8: Compound 258 (peptide)
peptide: {Ac-βAla}-[Sar][Sar][Sar][Sar][Sar][Sar][Sar][Sar][Sar][Sar]H[dD]VPCP[1Nal]G[Aib]F[1Nal]CP[Tle]NR[Aib]GC
modifications: linker 15-22-29 via TBMB
B9: Compound 234 (peptide)
peptide: [βAla][Sar][Sar][Sar][Sar][Sar][Sar][Sar][Sar][Sar][Sar]H[dD]VPC[Aib][1Nal]G[Aib]F[1Nal]CP[Tle]NRPGC
modifications: linker 16-23-30 via TBMB
B10: Compound 235 (peptide)
peptide: [βAla][Sar][Sar][Sar][Sar][Sar][Sar][Sar][Sar][Sar][Sar]H[dD]VPC[Aib][1Nal]G[Aib]F[1Nal]CP[Tle]N[hArg]PGC
modifications: linker 16-23-30 via TBMB
B11: Compound 238 (peptide)
peptide: [βAla][Sar][Sar][Sar][Sar][Sar][Sar][Sar][Sar][Sar][Sar]H[dD]VPC[Aib][1Nal]G[Aib]F[1Nal]CP[Tle]N[hArg][Aib][dD]C
modifications: linker 16-23-30 via TBMB
B12: Compound 253 (peptide)
peptide: Ac-[Sar][Sar]H[dD]VPCP[1Nal]G[Aib]F[1Nal]CP[Tle]N[hArg]PGC
modifications: linker 7-14-21 via TBMB
B13: Compound 241 (peptide)
peptide: {Ac-βAla}-[Sar][Sar][Sar][Sar][Sar][Sar][Sar][Sar][Sar][Sar]H[dD]VPC[Aib][1Nal]G[Aib]F[1Nal]CP[Tle]NR[Aib][dD]C
modifications: linker 15-22-29 via TBMB
B14: Compound 247 (peptide)
peptide: [βAla][Sar][Sar][Sar][Sar][Sar][Sar][Sar][Sar][Sar][Sar]H[dD]VPC[Aib]WGP[hArg]WCP[Tle]N[hArg]P[dD]C
modifications: linker 16-23-30 via TBMB
B15: Compound 250 (peptide)
peptide: [βAla][Sar][Sar][Sar][Sar][Sar][Sar][Sar][Sar][Sar][Sar]H[dD]VPCP[1Nal]G[Aib][hArg][1Nal]CP[Tle]NR[Aib][dD]C
modifications: linker 16-23-30 via TBMB
B16: Compound 186 (peptide)
peptide: [dD]VTCP[1Nal]G[Aib]F[1Nal]CP[Tle]NR[Aib]GC
modifications: linker 4-11-18 via TBMB
B17: Compound 246 (peptide)
peptide: [βAla][Sar][Sar][Sar][Sar][Sar][Sar][Sar][Sar][Sar][Sar]H[dD]VPC[Aib]WGP[hArg]WCP[Tle]N[hArg]P[dD]C
modifications: linker 16-23-30 via TBMB
B18: Compound 251 (peptide)
peptide: [βAla][Sar][Sar][Sar][Sar][Sar][Sar][Sar][Sar][Sar][Sar]H[dD]VPCP[1Nal]G[Aib][hArg][1Nal]CP[Tle]N[hArg]P[dD]C
modifications: linker 16-23-30 via TBMB
B19: Compound 248 (peptide)
peptide: [βAla][Sar][Sar][Sar][Sar][Sar][Sar][Sar][Sar][Sar][Sar]H[dD]VPC[dA][1Nal]G[Aib]F[1Nal]CP[Tle]N[hArg]P[dD]C
modifications: linker 16-23-30 via TBMB
B20: Compound 182 (peptide)
peptide: Ac-[Sar][Sar]A[dD]VTCP[1Nal]G[Aib]F[1Nal]CP[Tle]N[hArg]PGC
modifications: linker 7-14-21 via TBMB
B21: Compound 237 (peptide)
peptide: {Ac-βAla}-[Sar][Sar][Sar][Sar][Sar][Sar][Sar][Sar][Sar][Sar]H[dD]VPC[Aib][1Nal]G[Aib]F[1Nal]CP[Tle]N[hArg]P[dD]C
modifications: linker 15-22-29 via TBMB
B22: Compound 183 (peptide)
peptide: Ac-[Sar][Sar]A[dD]VTCP[1Nal]G[Aib]F[1Nal]CP[Tle]NR[Aib]GC
modifications: linker 7-14-21 via TBMB
B23: Compound 239 (peptide)
peptide: [βAla][Sar][Sar][Sar][Sar][Sar][Sar][Sar][Sar][Sar][Sar]H[dD]VPC[Aib][1Nal]G[Aib]F[1Nal]CP[Tle]NR[Aib]GC
modifications: linker 16-23-30 via TBMB
B24: Compound 184 (peptide)
peptide: Ac-[Sar][Sar]A[dD]VTCP[1Nal]G[Aib]F[1Nal]CP[Tle]N[hArg]P[dD]C
modifications: linker 7-14-21 via TBMB
B25: Compound 232 (peptide)
peptide: Ac-[Sar][Sar]A[dH]DVPCP[1Nal]G[Aib]F[1Nal]CP[Tle]NR[Aib]GC
modifications: linker 8-15-22 via TBMB
B26: Compound 244 (peptide)
peptide: [βAla][Sar][Sar][Sar][Sar][Sar][Sar][Sar][Sar][Sar][Sar]H[dD]VPC[Aib][1Nal]GP[hArg][1Nal]CP[Tle]N[hArg]P[dD]C
modifications: linker 16-23-30 via TBMB
B27: Compound 260 (peptide)
peptide: {Ac-βAla}-[Sar][Sar][Sar][Sar][Sar][Sar][Sar][Sar][Sar][Sar]H[dD]VPCP[1Nal]G[Aib]F[1Nal]CP[Tle]NR[Aib][dD]C
modifications: linker 15-22-29 via TBMB
B28: Compound 136 (peptide)
peptide: [Sar][Sar]ACP[1Nal]G[Aib]FWCP[Tle]N[hArg]PGC
modifications: linker 4-11-18 via TBMB
B29: Compound 57 (peptide)
peptide: ADVHCPWGPFWCPVNRPGCA
modifications: linker 5-12-19 via TBMB
B30: Compound 58 (peptide)
peptide: ADVTCPWGPFWCPVNRPGCA
modifications: linker 5-12-19 via TBMB
B31: Compound 135 (peptide)
peptide: [Sar][Sar]AC[Aib][1Nal]G[Aib]FWCPVNR[Aib]GC
modifications: linker 4-11-18 via TBMB
B32: Compound 134 (peptide)
peptide: [Sar][Sar]ACP[1Nal]GPFWCPVN[hArg]P[dA]C
modifications: linker 4-11-18 via TBMB
B33: Compound 55 (peptide)
peptide: AEGLPCPWGPFWCPVNRPGCA
modifications: linker 6-13-20 via TBMB

Numbered stars: 1 amine (or outer) side, 2 acyl side, 3 side chain; on linkers, the order of the positions; unused ones are H or OH. Bridge positions count the residues as written; N and C are the ends. Square brackets hold non-standard residues; d marks the D form. Ends that are not written are not given here. 1Nal = N[C@@H](Cc1cccc2ccccc12)C(=O)O; TBMB = c1c(C[*:1])cc(C[*:3])cc1C[*:2]; hArg = N=C(N)NCCCC[C@H](N)C(=O)O; Tle = CC(C)(C)[C@H](N)C(=O)O; Aib = CC(C)(N)C(=O)O; βAla = NCCC(=O)O; Sar = CNCC(=O)O

T1 sequence (P29317 24-537): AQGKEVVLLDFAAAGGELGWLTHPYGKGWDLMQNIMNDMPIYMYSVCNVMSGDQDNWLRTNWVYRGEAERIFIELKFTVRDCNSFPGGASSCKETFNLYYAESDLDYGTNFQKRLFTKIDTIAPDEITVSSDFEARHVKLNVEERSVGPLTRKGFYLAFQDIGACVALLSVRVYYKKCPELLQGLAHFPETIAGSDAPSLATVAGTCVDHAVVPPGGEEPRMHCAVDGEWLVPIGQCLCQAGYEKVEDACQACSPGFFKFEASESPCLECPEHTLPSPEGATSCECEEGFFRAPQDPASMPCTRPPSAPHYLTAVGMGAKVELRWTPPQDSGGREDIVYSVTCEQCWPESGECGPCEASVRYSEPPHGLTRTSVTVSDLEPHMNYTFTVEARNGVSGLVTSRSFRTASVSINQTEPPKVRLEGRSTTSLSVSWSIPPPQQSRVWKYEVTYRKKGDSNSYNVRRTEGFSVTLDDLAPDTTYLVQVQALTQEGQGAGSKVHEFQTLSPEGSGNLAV

One experiment concerns the target T1, Human EphA2 (Ecto) (Human, UniProt P29317 24-537).
T1 construct: extracellular domain
Nature of the experiment: FP competition; competitor Compound 18.
Molecule B1 came in with an inhibition constant Ki of 2.83 nM.
On to B2, for which the Ki came out at 0.91 nM.
Turning to B3, the Ki was 1.38 nM.
On the same count and under the same terms, for B4 the value was 1.07 nM; for B5, 7.77 nM; for B6, 1.55 nM.
Still for that read-out and setting: the result for B7 reads 1.93 nM; that for B8, 0.54 nM.
Still for that read-out and setting: the result for B9 reads 3.94 nM; that for B10, 2.58 nM.
With B11, the Ki came out at 2.83 nM.
Same read-out and setting: the result for B12 reads 0.85 nM; that for B13, 2.98 nM.
The same measure, in the same setting: for B14 the value was 29.7 nM; for B15, 1.48 nM.
Still for that read-out and setting: for B16 the value was 1.34 nM.
Molecule B17 displayed a Ki of 31.4 nM.
Still for that read-out and setting: for B18 the value was 1.93 nM.
Still for that read-out and setting: the result for B19 reads 28.4 nM; that for B20, 1.16 nM; that for B21, 2.4 nM.
On to B22, for which the inhibitory constant (Ki) was 1.02 nM.
Still for that read-out and setting: for B23 the value was 4.91 nM; for B24, 1.19 nM; for B25, 0.9 nM.
On the same count and under the same terms, for B26 the value was 2.8 nM; for B27, 0.75 nM.

The next experiment deals with T1, Human EphA2 (Ecto). In words: FP competition; competitor Compound 18. The source holds these as a separate data set.
Regarding B28, the inhibition constant Ki was determined as 23 nM.
The same measure, in the same setting: for B29 the value was 0.48 nM; for B30, 1.35 nM; for B31, 43 nM.
For B32, the Ki came to 1.2 nM.
With B33, the Ki stood at 11.3 nM.

A further experiment addresses T1, Human EphA2 (Ecto). Nature of the experiment: FP competition; competitor Compound 66. The procedure:
Peptides without a fluorescent tag were tested in competition with a peptide with a fluorescent tag and a known Kd (Table 2). Peptides were diluted to an appropriate concentration in assay buffer as described in the direct binding assay with a maximum of 5% DMSO, then serially diluted 1 in 2. Five μL of diluted peptide was added to the plate followed by 10 μL of human or mouse EphA2 (Table 1) at a fixed concentration which was dependent on the fluorescent peptide used (Table 2), then 10 μL fluorescent peptide added. Measurements were conducted as for the direct binding assay, however the gain was determined prior to the first measurement.
On to B28, for which the Ki is 15 nM.
Still for that read-out and setting: the result for B29 reads 1.2 nM; that for B30, 2.65 nM; that for B31, 30 nM.
With B32, the Ki worked out at 6.15 nM.
Same read-out and setting: for B33 the value was 6.15 nM.

The record behind these values is patent US20200338203A1 (Bicycle, published 2020).
